The binders below were run against Human Factor B (human) (UniProt P00751) (assay: cell-based or functional assay).
Human Factor B (human), sequence (P00751 26-764 limits assumed): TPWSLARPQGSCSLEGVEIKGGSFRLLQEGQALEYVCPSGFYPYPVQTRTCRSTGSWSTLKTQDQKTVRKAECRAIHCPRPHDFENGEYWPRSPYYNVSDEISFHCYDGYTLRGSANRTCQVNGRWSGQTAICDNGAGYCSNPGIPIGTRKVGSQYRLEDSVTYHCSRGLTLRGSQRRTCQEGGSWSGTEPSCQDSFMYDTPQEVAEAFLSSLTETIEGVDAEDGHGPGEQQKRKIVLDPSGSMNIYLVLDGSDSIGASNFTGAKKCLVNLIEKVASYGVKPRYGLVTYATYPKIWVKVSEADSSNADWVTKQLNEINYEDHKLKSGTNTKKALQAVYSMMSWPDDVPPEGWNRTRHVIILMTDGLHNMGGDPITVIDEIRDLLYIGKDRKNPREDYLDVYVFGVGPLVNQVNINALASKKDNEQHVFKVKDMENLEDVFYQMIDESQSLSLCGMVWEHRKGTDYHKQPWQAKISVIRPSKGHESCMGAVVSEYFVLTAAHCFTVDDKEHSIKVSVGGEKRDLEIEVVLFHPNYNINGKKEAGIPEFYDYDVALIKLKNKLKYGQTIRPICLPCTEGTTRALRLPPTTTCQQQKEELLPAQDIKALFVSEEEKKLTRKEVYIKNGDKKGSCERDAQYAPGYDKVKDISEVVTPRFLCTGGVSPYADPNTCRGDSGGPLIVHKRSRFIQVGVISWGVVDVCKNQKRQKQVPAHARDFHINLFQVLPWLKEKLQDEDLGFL

| Binder | fB Cleavage EC50 [µM] | fB Cleavage, 80% plasma EC50 [µM] |
| --- | --- | --- |
| chymase C22S/D175N/A226R (enzyme) IIGGTESKPHSRPYMAYLEIVTSNGPSKFCGGFLIRRNFVLTAAHCAGRSITVTLGAHNITEEEDTWQKLEVIKQFRHPKYNTSTLHHDIMLLKLKEKASLTLAVGTLPFPSQFNFVPPGRMCRVAGWGRTGVLKPGSDTLQEVKLRLMDPQACSHFRNFDHNLQLCVGNPRKTKSAFKGDSGGPLLCAGVAQGIVSYGRSDAKPPRVFTRISHYRPWINQILQAN | 0.564 | 7.77 |
| chymase C22S/V138A/A226R (enzyme) IIGGTESKPHSRPYMAYLEIVTSNGPSKFCGGFLIRRNFVLTAAHCAGRSITVTLGAHNITEEEDTWQKLEVIKQFRHPKYNTSTLHHDIMLLKLKEKASLTLAVGTLPFPSQFNFVPPGRMCRAAGWGRTGVLKPGSDTLQEVKLRLMDPQACSHFRDFDHNLQLCVGNPRKTKSAFKGDSGGPLLCAGVAQGIVSYGRSDAKPPRVFTRISHYRPWINQILQAN | 2.94 |  |
| chymase C22S/F41K/L99N/F173Y/D175N/S218L/A226R (enzyme) IIGGTESKPHSRPYMAYLEIVTSNGPSKKCGGFLIRRNFVLTAAHCAGRSITVTLGAHNITEEEDTWQKLEVIKQFRHPKYNTSTNHHDIMLLKLKEKASLTLAVGTLPFPSQFNFVPPGRMCRVAGWGRTGVLKPGSDTLQEVKLRLMDPQACSHYRNFDHNLQLCVGNPRKTKSAFKGDSGGPLLCAGVAQGIVSYGRLDAKPPRVFTRISHYRPWINQILQAN | 0.077 |  |
| chymase C22S/V138S/S189T/A226R/F228M (enzyme) IIGGTESKPHSRPYMAYLEIVTSNGPSKFCGGFLIRRNFVLTAAHCAGRSITVTLGAHNITEEEDTWQKLEVIKQFRHPKYNTSTLHHDIMLLKLKEKASLTLAVGTLPFPSQFNFVPPGRMCRSAGWGRTGVLKPGSDTLQEVKLRLMDPQACSHFRDFDHNLQLCVGNPRKTKTAFKGDSGGPLLCAGVAQGIVSYGRSDAKPPRVMTRISHYRPWINQILQAN | 2.98 |  |
| chymase C22S/K40L/F41K/L99N/F173Y/D175N/A226R (enzyme) IIGGTESKPHSRPYMAYLEIVTSNGPSLKCGGFLIRRNFVLTAAHCAGRSITVTLGAHNITEEEDTWQKLEVIKQFRHPKYNTSTNHHDIMLLKLKEKASLTLAVGTLPFPSQFNFVPPGRMCRVAGWGRTGVLKPGSDTLQEVKLRLMDPQACSHYRNFDHNLQLCVGNPRKTKSAFKGDSGGPLLCAGVAQGIVSYGRSDAKPPRVFTRISHYRPWINQILQAN | 0.151 |  |
| chymase C22S/V138L/S189T/A190G/A226R (enzyme) IIGGTESKPHSRPYMAYLEIVTSNGPSKFCGGFLIRRNFVLTAAHCAGRSITVTLGAHNITEEEDTWQKLEVIKQFRHPKYNTSTLHHDIMLLKLKEKASLTLAVGTLPFPSQFNFVPPGRMCRLAGWGRTGVLKPGSDTLQEVKLRLMDPQACSHFRDFDHNLQLCVGNPRKTKTGFKGDSGGPLLCAGVAQGIVSYGRSDAKPPRVFTRISHYRPWINQILQAN | 4.16 |  |
| chymase C22S/K40L/F41K/F173Y/D175N/S218L/A226R (enzyme) IIGGTESKPHSRPYMAYLEIVTSNGPSLKCGGFLIRRNFVLTAAHCAGRSITVTLGAHNITEEEDTWQKLEVIKQFRHPKYNTSTLHHDIMLLKLKEKASLTLAVGTLPFPSQFNFVPPGRMCRVAGWGRTGVLKPGSDTLQEVKLRLMDPQACSHYRNFDHNLQLCVGNPRKTKSAFKGDSGGPLLCAGVAQGIVSYGRLDAKPPRVFTRISHYRPWINQILQAN | 0.077 |  |
| chymase C22S/K40L/F41K/L99N/D175N/S218L/A226R (enzyme) IIGGTESKPHSRPYMAYLEIVTSNGPSLKCGGFLIRRNFVLTAAHCAGRSITVTLGAHNITEEEDTWQKLEVIKQFRHPKYNTSTNHHDIMLLKLKEKASLTLAVGTLPFPSQFNFVPPGRMCRVAGWGRTGVLKPGSDTLQEVKLRLMDPQACSHFRNFDHNLQLCVGNPRKTKSAFKGDSGGPLLCAGVAQGIVSYGRLDAKPPRVFTRISHYRPWINQILQAN | 0.295 |  |
| chymase C22S/V138A/G145D/S189T/A190S/A226R (enzyme) IIGGTESKPHSRPYMAYLEIVTSNGPSKFCGGFLIRRNFVLTAAHCAGRSITVTLGAHNITEEEDTWQKLEVIKQFRHPKYNTSTLHHDIMLLKLKEKASLTLAVGTLPFPSQFNFVPPGRMCRAAGWGRTDVLKPGSDTLQEVKLRLMDPQACSHFRDFDHNLQLCVGNPRKTKTSFKGDSGGPLLCAGVAQGIVSYGRSDAKPPRVFTRISHYRPWINQILQAN | 3.81 |  |
| chymase C22S/A226R/F228A (enzyme) IIGGTESKPHSRPYMAYLEIVTSNGPSKFCGGFLIRRNFVLTAAHCAGRSITVTLGAHNITEEEDTWQKLEVIKQFRHPKYNTSTLHHDIMLLKLKEKASLTLAVGTLPFPSQFNFVPPGRMCRVAGWGRTGVLKPGSDTLQEVKLRLMDPQACSHFRDFDHNLQLCVGNPRKTKSAFKGDSGGPLLCAGVAQGIVSYGRSDAKPPRVATRISHYRPWINQILQAN | 5.07 |  |
| chymase C22S/A220S/A226R (enzyme) IIGGTESKPHSRPYMAYLEIVTSNGPSKFCGGFLIRRNFVLTAAHCAGRSITVTLGAHNITEEEDTWQKLEVIKQFRHPKYNTSTLHHDIMLLKLKEKASLTLAVGTLPFPSQFNFVPPGRMCRVAGWGRTGVLKPGSDTLQEVKLRLMDPQACSHFRDFDHNLQLCVGNPRKTKSAFKGDSGGPLLCAGVAQGIVSYGRSDSKPPRVFTRISHYRPWINQILQAN | 5.56 |  |

Second part, the binder after the results:

| fB Cleavage EC50 [µM] | fB Cleavage, 80% plasma EC50 [µM] | Binder |
| --- | --- | --- |
| 1.55 |  | chymase C22S/S189T/A226R/F228M (enzyme) IIGGTESKPHSRPYMAYLEIVTSNGPSKFCGGFLIRRNFVLTAAHCAGRSITVTLGAHNITEEEDTWQKLEVIKQFRHPKYNTSTLHHDIMLLKLKEKASLTLAVGTLPFPSQFNFVPPGRMCRVAGWGRTGVLKPGSDTLQEVKLRLMDPQACSHFRDFDHNLQLCVGNPRKTKTAFKGDSGGPLLCAGVAQGIVSYGRSDAKPPRVMTRISHYRPWINQILQAN |
| 6.71 |  | chymase C22S/V138T/A190S/V213A/A226R (enzyme) IIGGTESKPHSRPYMAYLEIVTSNGPSKFCGGFLIRRNFVLTAAHCAGRSITVTLGAHNITEEEDTWQKLEVIKQFRHPKYNTSTLHHDIMLLKLKEKASLTLAVGTLPFPSQFNFVPPGRMCRTAGWGRTGVLKPGSDTLQEVKLRLMDPQACSHFRDFDHNLQLCVGNPRKTKSSFKGDSGGPLLCAGVAQGIASYGRSDAKPPRVFTRISHYRPWINQILQAN |
| 8.14 |  | chymase C22S/S189T/A190S/F191S/A220L/A226R (enzyme) IIGGTESKPHSRPYMAYLEIVTSNGPSKFCGGFLIRRNFVLTAAHCAGRSITVTLGAHNITEEEDTWQKLEVIKQFRHPKYNTSTLHHDIMLLKLKEKASLTLAVGTLPFPSQFNFVPPGRMCRVAGWGRTGVLKPGSDTLQEVKLRLMDPQACSHFRDFDHNLQLCVGNPRKTKTSSKGDSGGPLLCAGVAQGIVSYGRSDLKPPRVFTRISHYRPWINQILQAN |
| 0.23 | 5.14 | chymase C22S/K40M/F41R/L99N/F173Y/D175S/S218L/A226R (enzyme) IIGGTESKPHSRPYMAYLEIVTSNGPSMRCGGFLIRRNFVLTAAHCAGRSITVTLGAHNITEEEDTWQKLEVIKQFRHPKYNTSTNHHDIMLLKLKEKASLTLAVGTLPFPSQFNFVPPGRMCRVAGWGRTGVLKPGSDTLQEVKLRLMDPQACSHYRSFDHNLQLCVGNPRKTKSAFKGDSGGPLLCAGVAQGIVSYGRLDAKPPRVFTRISHYRPWINQILQAN |
| 0.181 | 7.21 | chymase C22S/K40M/F41R/L99H/F173Y/D175W/S218L/A226R (enzyme) IIGGTESKPHSRPYMAYLEIVTSNGPSMRCGGFLIRRNFVLTAAHCAGRSITVTLGAHNITEEEDTWQKLEVIKQFRHPKYNTSTHHHDIMLLKLKEKASLTLAVGTLPFPSQFNFVPPGRMCRVAGWGRTGVLKPGSDTLQEVKLRLMDPQACSHYRWFDHNLQLCVGNPRKTKSAFKGDSGGPLLCAGVAQGIVSYGRLDAKPPRVFTRISHYRPWINQILQAN |
| 11.8 |  | chymase C22S/K40M/F41V/L99N/G151R/F173S/S218E/A226R (enzyme) IIGGTESKPHSRPYMAYLEIVTSNGPSMVCGGFLIRRNFVLTAAHCAGRSITVTLGAHNITEEEDTWQKLEVIKQFRHPKYNTSTNHHDIMLLKLKEKASLTLAVGTLPFPSQFNFVPPGRMCRVAGWGRTGVLKPRSDTLQEVKLRLMDPQACSHSRDFDHNLQLCVGNPRKTKSAFKGDSGGPLLCAGVAQGIVSYGREDAKPPRVFTRISHYRPWINQILQAN |
| 0.113 |  | chymase C22S/K40L/L99N/F173Y/D175N/S218L/A226R (enzyme) IIGGTESKPHSRPYMAYLEIVTSNGPSLFCGGFLIRRNFVLTAAHCAGRSITVTLGAHNITEEEDTWQKLEVIKQFRHPKYNTSTNHHDIMLLKLKEKASLTLAVGTLPFPSQFNFVPPGRMCRVAGWGRTGVLKPGSDTLQEVKLRLMDPQACSHYRNFDHNLQLCVGNPRKTKSAFKGDSGGPLLCAGVAQGIVSYGRLDAKPPRVFTRISHYRPWINQILQAN |
| 4.42 |  | chymase C22S/V138A/S189T/A226R (enzyme) IIGGTESKPHSRPYMAYLEIVTSNGPSKFCGGFLIRRNFVLTAAHCAGRSITVTLGAHNITEEEDTWQKLEVIKQFRHPKYNTSTLHHDIMLLKLKEKASLTLAVGTLPFPSQFNFVPPGRMCRAAGWGRTGVLKPGSDTLQEVKLRLMDPQACSHFRDFDHNLQLCVGNPRKTKTAFKGDSGGPLLCAGVAQGIVSYGRSDAKPPRVFTRISHYRPWINQILQAN |
| 8.2 |  | chymase C22S/K40M/F41I/L99H/G151R/F173S/S218L/A226R (enzyme) IIGGTESKPHSRPYMAYLEIVTSNGPSMICGGFLIRRNFVLTAAHCAGRSITVTLGAHNITEEEDTWQKLEVIKQFRHPKYNTSTHHHDIMLLKLKEKASLTLAVGTLPFPSQFNFVPPGRMCRVAGWGRTGVLKPRSDTLQEVKLRLMDPQACSHSRDFDHNLQLCVGNPRKTKSAFKGDSGGPLLCAGVAQGIVSYGRLDAKPPRVFTRISHYRPWINQILQAN |
| 12.4 |  | chymase C22S/P38Q/V138I/A226R/F228A (enzyme) IIGGTESKPHSRPYMAYLEIVTSNGQSKFCGGFLIRRNFVLTAAHCAGRSITVTLGAHNITEEEDTWQKLEVIKQFRHPKYNTSTLHHDIMLLKLKEKASLTLAVGTLPFPSQFNFVPPGRMCRIAGWGRTGVLKPGSDTLQEVKLRLMDPQACSHFRDFDHNLQLCVGNPRKTKSAFKGDSGGPLLCAGVAQGIVSYGRSDAKPPRVATRISHYRPWINQILQAN |
| 1.77 |  | chymase C22S/V138A/S189T/A226R/F228M (enzyme) IIGGTESKPHSRPYMAYLEIVTSNGPSKFCGGFLIRRNFVLTAAHCAGRSITVTLGAHNITEEEDTWQKLEVIKQFRHPKYNTSTLHHDIMLLKLKEKASLTLAVGTLPFPSQFNFVPPGRMCRAAGWGRTGVLKPGSDTLQEVKLRLMDPQACSHFRDFDHNLQLCVGNPRKTKTAFKGDSGGPLLCAGVAQGIVSYGRSDAKPPRVMTRISHYRPWINQILQAN |

— patent publication US20240117334A1, “FACTOR B PROTEASES” (Vertex Pharmaceuticals Incorporated, priority 2021, published 2024)
